From the supplement of paper PMC11246515
± gives the standard deviation of the averaged measurements.

Assay: total protein half-life in vivo (active degradation + dilution); higher = more stable protein
[1] = E. coli NCM3722 delta-clpP, growth: N-lim chemostat, doubling time 6 h
[2] = E. coli NCM3722 delta-hslV, growth: N-lim chemostat, doubling time 6 h
[3] = E. coli NCM3722 delta-lon, growth: N-lim chemostat, doubling time 6 h
[4] = E. coli NCM3722 delta-smpB, growth: N-lim chemostat, doubling time 6 h
[5] = wild type E. coli NCM3722, growth: C-lim chemostat, doubling time 3 h
[6] = wild type E. coli NCM3722, growth: C-lim chemostat, doubling time 6 h
[7] = wild type E. coli NCM3722, growth: C-lim chemostat, doubling time 12 h
[8] = wild type E. coli NCM3722, growth: N-lim chemostat, doubling time 6 h
[9] = wild type E. coli NCM3722, growth: N-lim chemostat, doubling time 12 h
[10] = wild type E. coli NCM3722, growth: P-lim chemostat, doubling time 6 h
[11] = wild type E. coli NCM3722, growth: P-lim chemostat, doubling time 12 h
[12] = E. coli NCM3722 delta-clpP delta-lon delta-hslV, growth: N-lim chemostat, doubling time 6 h

Sequence | total protein half-life in vivo [1] [h] | total protein half-life in vivo [2] [h] | total protein half-life in vivo [3] [h] | total protein half-life in vivo [4] [h] | total protein half-life in vivo [5] [h] | total protein half-life in vivo [6] [h] | total protein half-life in vivo [7] [h] | total protein half-life in vivo [8] [h] | total protein half-life in vivo [9] [h] | total protein half-life in vivo [10] [h] | total protein half-life in vivo [11] [h] | total protein half-life in vivo [12] [h]
MDRIIEKLDHGWWVVSHEQKLWLPKGELPYGEAANFDLVGQRALQIGEWQGEPVWLVQQQRRHDMGSVRQVIDLDVGLFQLAGRGVQLAEFYRSHKYCGYCGHEMYPSKTEWAMLCSHCRERYYPQIAPCIIVAIRRDDSILLAQHTRHRNGVHTVLAGFVEVGETLEQAVAREVMEESGIKVKNLRYVTSQPWPFPQSLMTAFMAEYDSGDIVIDPKELLEANWYRYDDLPLLPPPGTVARRLIEDTVAMCRAEYE | 5.5 ± 1.5 | 5.52 ± 2 | 4.5929 ± 0.0003 | 4.57 ± 0.72 | 3.06 ± 1.1 | 5.09 ± 0.28 | 11.1 ± 0.68 | 4.5 ± 0.24 | 6.936 ± 0.055 | 5.97 ± 0.23 | 11.17 ± 0.051 | 
MLPPYFLFKEMTDTQYIGRFAPSPSGELHFGSLIAALGSYLQARARQGRWLVRIEDIDPPREVPGAAETILRQLEHYGLHWDGDVLWQSQRHDAYREALAWLHEQGLSYYCTCTRARIQSIGGIYDGHCRVLHHGPDNAAVRIRQQHPVTQFTDQLRGIIHADEKLAREDFIIHRRDGLFAYNLAVVVDDHFQGVTEIVRGADLIEPTVRQISLYQLFGWKVPDYIHLPLALNPQGAKLSKQNHAPALPKGDPRPVLIAALQFLGQQAEAHWQDFSVEQILQSAVKNWRLTAVPESAIVNSTFSNASC | 3.9 |  | 5.27 | 3.67 ± 0.12 | 3.26 ± 0.7 | 5.73 | 3.64 | 3.84 |  | 4.7 | 9.87 ± 0.39 | 
MKTGPLNESELEWLDDILTKYNTDHAILDVAELDGLLTAVLSSPQEIEPEQWLVAVWGGADYVPRWASEKEMTRFMNLAFQHMADTAERLNEFPEQFEPLFGLREVDGSELTIVEEWCFGYMRGVALSDWSTLPDSLKPALEAIALHGTEENFERVEKMSPEAFEESVDAIRLAALDLHAYWMAHPQEKAVQQPIKAEEKPGRNDPCPCGSGKKFKQCCLH [P0AD05] | 5.13 ± 1.1 | 4.22 ± 0.47 | 4.39 ± 0.54 | 3.3 ± 0.53 |  | 5.21 ± 1.5 | 8.89 ± 1.9 | 3.93 ± 0.25 | 5.34 ± 1.1 | 4.67 ± 0.34 | 8.41 ± 0.26 | 5.402 ± 0.046
MTVTTFSELELDESLLEALQDKGFTRPTAIQAAAIPPALDGRDVLGSAPTGTGKTAAYLLPALQHLLDFPRKKSGPPRILILTPTRELAMQVSDHARELAKHTHLDIATITGGVAYMNHAEVFSENQDIVVATTGRLLQYIKEENFDCRAVETLILDEADRMLDMGFAQDIEHIAGETRWRKQTLLFSATLEGDAIQDFAERLLEDPVEVSANPSTRERKKIHQWYYRADDLEHKTALLVHLLKQPEATRSIVFVRKRERVHELANWLREAGINNCYLEGEMVQGKRNEAIKRLTEGRVNVLVATDVAARGIDIPDVSHVFNFDMPRSGDTYLHRIGRTARAGRKGTAISLVEAHDHLLLGKVGRYIEEPIKARVIDELRPKTRAPSEKQTGKPSKKVLAKRAEKKKAKEKEKPRVKKRHRDTKNIGKRRKPSGTGVPPQTTEE | 5.51 ± 0.25 | 4.72 ± 0.45 | 5.13 ± 0.37 | 4.237 ± 0.022 | 3.01 ± 0.26 | 5.47 ± 0.41 | 9.33 ± 0.45 | 4.2 ± 0.049 | 7.37 ± 0.27 | 4.18 ± 0.28 | 7.44 ± 0.14 | 5.75 ± 0.085
MHSERAPFFLKLAAWGGVVFLHFPILIIAAYAFNTEDAAFSFPPQGLTLRWFSVAAQRSDILDAVTLSLKVAALATLIALVLGTLAAAALWRRDFFGKNAISLLLLLPIALPGIVTGLALLTAFKTINLEPGFFTIVVGHATFCVVVVFNNVIARFRRTSWSLVEASMDLGANGWQTFRYVVLPNLSSALLAGGMLAFALSFDEIIVTTFTAGHERTLPLWLLNQLGRPRDVPVTNVVALLVMLVTTLPILGAWWLTREGDNGQ [P0AFR9] |  |  |  |  |  |  |  |  |  |  |  | 6.7
MDEFKPEDELKPDPSDRRTGRSRQSSERSERTERGEPQINFDDIELDDTDDRRPTRAQKERNEEPEIEEEIDESEDETVDEERVERRPRKRKKAASKPASRQYMMMGVGILVLLLLIIGIGSALKAPSTTSSDQTASGEKSIDLAGNATDQANGVQPAPGTTSAENTQQDVSLPPISSTPTQGQTPVATDGQQRVEVQGDLNNALTQPQNQQQLNNVAVNSTLPTEPATVAPVRNGNASRDTAKTQTAERPSTTRPARQQAVIEPKKPQATVKTEPKPVAQTPKRTEPAAPVASTKAPAATSTPAPKETATTAPVQTASPAQTTATPAAGAKTAGNVGSLKSAPSSHYTLQLSSSSNYDNLNGWAKKENLKNYVVYETTRNGQPWYVLVSGVYASKEEAKKAVSTLPADVQAKNPWAKPLRQVQADLK | 6.01 ± 0.27 | 5.595 ± 0.021 | 5.74 ± 0.32 | 5.54 ± 0.12 | 2.84 ± 0.091 | 5.51 ± 0.26 | 9.07 ± 0.37 | 5.58 ± 0.49 | 11.9 ± 2 | 5.099 ± 0.038 | 10.285 ± 0.01 | 5.8 ± 0.35
MANADLDKQPDSVSSVLKVFGILQALGEEREIGITELSQRVMMSKSTVYRFLQTMKTLGYVAQEGESEKYSLTLKLFELGARALQNVDLIRSADIQMRELSRLTKETIHLGALDEDSIVYIHKIDSMYNLRMYSRIGRRNPLYSTAIGKVLLAWRDRDEVKQILEGVEYKRSTERTITSTEALLPVLDQVREQGYGEDNEEQEEGLRCIAVPVFDRFGVVIAGLSISFPTLRFSEERLQEYVAMLHTAARKISAQMGYHDYPF | 6.18 ± 1.6 | 4.82 ± 0.33 | 5.09 ± 0.25 | 5.01 ± 0.17 | 3.01 ± 0.13 | 5.91 ± 0.28 | 10.2 ± 0.83 | 5.255 ± 0.017 | 8.11 ± 0.13 | 5.82 ± 0.61 | 11.1 ± 0.7 | 6.07 ± 1.7
